Assay results: patent US20220233710A1 (NANTONG YICHEN BIOPHARMA, published 2022)
Each block holds one binder with its values, some of them ahead of it.

Columns and labels:
Recombinant human IL-6 = biological target: T1, Recombinant human IL-6 (human, UniProt P05231 30-212); experiment: ELISA, human IL-6 coated on plate, anti-human Fc-HRP
T1 construct: Bought protein
Experimental: Recombinant human IL-6 (SinoBiological) (100 ng/well) (PBS buffer, pH7.4) was coated in a 96-well plate, and incubated overnight at 4° C. After blocked with PBST containing 2% skimmed milk powder (0.5% Tween-20 in PBS) at room temperature for 1 hour, followed by being washed for 3 times with PBST, the bispecific molecules (0.04 nM-30 nM) in gradient dilutions were added and incubated at 37° C. for 1 h. After being washed for 3 times with PBST, anti-human Fc-HRP (KPL, 1:2500) secondary antibody diluted by 2% milk/PBST was added and incubated at room temperature for 1 h, followed by being washed for 5 times with PBST. TMB (BioLegend) was used for color development, and readings was performed in Thermal VARIOSKAN FLASH plate reader at 650 nm. Data was analyzed with a log[agonist] vs response (3 parameters) model in “non-linear regression” by Graphpad Prizm software.

recombinant human IL-1β = biological target: T2, recombinant human IL-1β (human, UniProt P01584 117-269); experiment: ELISA, IL-1β coated on plate, anti-human Fc-HRP
T2 construct: Bought protein
Experimental: (§1) Recombinant human IL-1β (Thermo Fisher Scientific), recombinant mouse IL-1β (Sino Bio), recombinant mouse IL-1R (Sino Bio), or recombinant human IL-1R (100 ng/well) (DPBS buffer, pH7.4) was coated in a 96-well plate, and incubated overnight at 4° C. After blocked by PBST (0.5% Tween-20 in PBS) containing 2% skimmed milk powder for 1 hour at room temperature, and being washed with PBST for 3 times, the gradient diluted bispecific molecules (0.006 nM-100 nM) were added and incubated at 37° C. for 1 h. After being washed with PBST for 3 times, anti-human Fc-HRP (KPL; 1:2500) secondary antibody diluted by 2% milk/PBST was added and incubated at room temperature for 1 h, and then washed by PBST for 5 times. QuantaBlu fluorescent peroxide enzyme substrate (Life technologies, Cat. 15169) was used for color development, and reading was performed at 325 nm and 420 nm, or TMB color reagent (Bio Legend) was used for color development, and the reading was performed at 650 nm. Data was analyzed by nonlinear regression using specific binding model in Prizm Graphpad software.

recombinant mouse IL-1β = biological target: T3, recombinant mouse IL-1β (mouse, UniProt P10749 118-269); experiment: ELISA, IL-1β coated on plate, anti-human Fc-HRP
T3 construct: Bought protein; also called murine IL-1β
Experimental: as §1

T1 sequence (P05231 30-212 limits assumed): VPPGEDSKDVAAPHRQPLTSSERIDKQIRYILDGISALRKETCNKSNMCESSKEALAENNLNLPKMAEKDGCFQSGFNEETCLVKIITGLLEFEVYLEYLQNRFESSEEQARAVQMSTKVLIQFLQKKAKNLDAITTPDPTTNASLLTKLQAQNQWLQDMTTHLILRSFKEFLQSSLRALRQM

- binding result (Recombinant human IL-6): binds
B1: BSI-13 (bispecific antibody, human IgG1, kappa, N297A)
heavy: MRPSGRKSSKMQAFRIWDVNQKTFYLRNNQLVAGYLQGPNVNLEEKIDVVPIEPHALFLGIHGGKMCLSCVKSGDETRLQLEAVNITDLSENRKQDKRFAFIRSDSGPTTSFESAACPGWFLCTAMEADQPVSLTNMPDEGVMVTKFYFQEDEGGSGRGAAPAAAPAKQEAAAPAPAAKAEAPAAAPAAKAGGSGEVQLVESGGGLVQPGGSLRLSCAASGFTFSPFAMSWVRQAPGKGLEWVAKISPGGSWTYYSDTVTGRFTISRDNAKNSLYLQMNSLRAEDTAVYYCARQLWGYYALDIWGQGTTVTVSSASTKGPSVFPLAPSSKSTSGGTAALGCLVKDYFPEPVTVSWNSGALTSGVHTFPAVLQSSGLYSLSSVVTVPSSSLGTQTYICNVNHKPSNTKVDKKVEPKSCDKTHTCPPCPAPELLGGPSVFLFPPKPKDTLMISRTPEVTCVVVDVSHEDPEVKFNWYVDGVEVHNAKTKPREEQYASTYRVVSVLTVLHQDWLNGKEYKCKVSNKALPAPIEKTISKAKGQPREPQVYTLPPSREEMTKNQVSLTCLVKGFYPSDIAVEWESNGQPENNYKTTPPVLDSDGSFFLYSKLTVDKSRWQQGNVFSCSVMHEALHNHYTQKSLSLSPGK
light: EIVLTQSPATLSLSPGERATLSCSASISVSYMYWYQQKPGQAPRLLIYDMSNLASGIPARFSGSGSGTDFTLTISSLEPEDFAVYYCMQWSGYPYTFGGGTKVEIKRTVAAPSVFIFPPSDEQLKSGTASVVCLLNNFYPREAKVQWKVDNALQSGNSQESVTEQDSKDSTYSLSSTLTLSKADYEKHKVYACEVTHQGLSSPVTKSFNRGEC
notes: aIL-6 antibody fused with IL-1RA by a linker peptide

- binding result (Recombinant human IL-6): binds
B2: BSI-16 (bispecific antibody, human IgG1, kappa)
heavy: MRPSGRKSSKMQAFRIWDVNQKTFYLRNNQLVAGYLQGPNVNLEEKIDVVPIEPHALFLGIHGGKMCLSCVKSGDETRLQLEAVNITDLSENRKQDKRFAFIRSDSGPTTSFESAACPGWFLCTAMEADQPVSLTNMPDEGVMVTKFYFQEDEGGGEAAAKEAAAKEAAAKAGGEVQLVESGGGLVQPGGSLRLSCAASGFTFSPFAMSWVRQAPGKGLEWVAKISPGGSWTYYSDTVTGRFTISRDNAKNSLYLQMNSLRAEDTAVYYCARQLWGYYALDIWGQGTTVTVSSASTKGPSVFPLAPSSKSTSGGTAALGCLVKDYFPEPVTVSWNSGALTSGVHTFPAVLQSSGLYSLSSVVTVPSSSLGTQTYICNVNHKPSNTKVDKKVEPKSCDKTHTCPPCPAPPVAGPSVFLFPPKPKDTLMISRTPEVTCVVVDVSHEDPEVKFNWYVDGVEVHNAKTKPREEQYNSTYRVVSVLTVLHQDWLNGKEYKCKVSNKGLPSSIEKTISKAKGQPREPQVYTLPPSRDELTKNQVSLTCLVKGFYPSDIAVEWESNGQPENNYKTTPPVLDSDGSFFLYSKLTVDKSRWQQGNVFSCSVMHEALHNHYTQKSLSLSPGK
light: B1 light
notes: as for B1

- binding result (recombinant human IL-1β): binds
- binding result (recombinant mouse IL-1β): binds
B3: aIL-1β-2 antibody (antibody, V domains shown)
VH: QVQLQQWGAGLLKPSETLSLTCAVYGGSFSDYYWSWIRQPPGKGLEWIGEIDHSGSTNYNPSLKSRVTISVDTSKNQFSLKLSSVTAADTAVYYCARASPSSGWTLDYWGQGTLVTVSS
VL: QSVLTQPPSVSVSPGQTASITCSGDKLGDKFAFWYQQKPGQSPVLVIYLDNKRPSGIPERFSGSNSGNTATLTISGTQALDEADYYCYAWADTYEVFGGGTKVDIKR

- binding result (Recombinant human IL-6): binds
B4: aIL-6 antibody (antibody, human IgG1, kappa, N297A, V domains shown)
VH: EVQLVESGGGLVQPGGSLRLSCAASGFTFSPFAMSWVRQAPGKGLEWVAKISPGGSWTYYSDTVTGRFTISRDNAKNSLYLQMNSLRAEDTAVYYCARQLWGYYALDIWGQGTTVTVSS
VL: EIVLTQSPATLSLSPGERATLSCSASISVSYMYWYQQKPGQAPRLLIYDMSNLASGIPARFSGSGSGTDFTLTISSLEPEDFAVYYCMQWSGYPYTFGGGTKVEIKR
